B1: chimeric antibody 4B9E9 (antibody, human IgG1, kappa, V domains shown)
VH: DVQLVESGGGLVQPRGSRKLSCAASGFTFSSFGMHWVRQAPEKGLEWVAYISSDSNTIYYADTVQGRFTISRDNPKNTLFLQMTRLRSEDTAMYYCARNPWYFDVWGAGTTVTVSS
VL: DVLMTQTPLSLPVSLGDQVSISCRSSQSIVHSNGNTYLEWFLQKPGQSPKLLIYKVSNRFSGVPDRFSGSGSGTDFTLKISRVEAEDLGIYYCFQGSHIPPTFGGGTKLEIKR
notes: Murine variable regions on human IgG1 and kappa constant regions
B2: chimeric antibody 29H12C9 (antibody, human IgG1, kappa, V domains shown)
VH: QVQLQQPGAELVKPGASVKLSCKASGYTFTTHYMYWVKQRPGQGLEWIGGINPSNGATNFNEKFKTKATLTVDKSSSTAYMQLSSLTSEDSAVYYCTRVGGLSYTMDYWGQGTSVTVSS
VL: DIVMSQSPSSLAVSVGEKVSMSCKSSQSLLYSSNQKNYLAWYQQKPGQSPKLLIYWASTRESGVPDRFTGSGYGTDFTLTISSMKAEDLAVYYCQQYYSYPRTFGGGTKLDIKR
notes: also called murine chimeric antibody 29H12C9; murine control antibody (29H12C9)
B3: chimeric antibody 39A9F1 (antibody, human IgG1, kappa, V domains shown)
VH: QVQLQQPGAELVKPGSSVKLSCKASGYTFTTYWMEWVKQRPGQGLEWIGEINPNNGRSNYNEKFQTKATLTVDKSSSTAYMQFSSLTSEDSAVYYCARERAGLTYWGQGTLVIVSA
VL: DVVMTQTPLSLPVSLGDQASISCRSSQSLVHSNGNTYLHWYLQKPGQSPKLLIYKVSNRFSGVPDRFGGSGSGTDFTLKISRVEAEDLGVYFCSQSTHFPYTFGGGTKLEIKR
notes: as for B1

How the values were obtained:
human GPRC5D protein = molecular target: T1, human GPRC5D protein (human, UniProt Q9NZD1 1-345); assay: flow cytometry, HEK293T-HuGPRC5D cells (sheet: 293T-huGPRC5D), PE anti-human IgG Fc secondary, MFI
T1 construct: NCI-H929 cells express it endogenously in the functional assays; also called HuGPRC5D; huGPRC5D
Procedure: (§1) Whether the anti-GPRC5D chimeric antibodies in the present invention could bind to the human GPRC5D protein or cynomolgus monkey GPRC5D protein stably expressed on the cell surface was determined by cell binding experiments.
(§2) The HEK293T-HuGPRC5D cell line and HEK293T-CynoGPRC5D shown in Table 2 were subjected to enzymatic digestion to obtain single cell suspensions of the two types of cells. The single cell suspensions were centrifuged at room temperature at 400×g, and then the media were discarded. The resulting cell pellets were washed once with PBS and then resuspended in the serially diluted anti-GPRC5D chimeric antibodies shown in Table 5 and the control antibody GC5B596 (at an initial concentration of 133.3 nM, 4-fold gradient dilution, 8 concentrations in total), and the cells were incubated at 4° C. for 30 min. The cells were washed once with PBS, and then fluorescent secondary antibody R-PE-conjugated AffiniPure Goat Anti-Human IgG, Fcγ Fragment Specific (Jackson ImmunoResearch, Cat #109-116-098) diluted in a 1:200 ratio was added. The cells were incubated in the dark at 4° C. for 30 min. The cells were washed twice with PBS and then resuspended, and finally, two-channel fluorescence signals were detected using a BD Accuri C5 (BD Bioscience) flow cytometer.

[1] = molecular target: T2, cynomolgus monkey GPRC5D protein (cynomolgus monkey, UniProt Q9NZD1 1-343 (human entry)); assay: flow cytometry, HEK293T-CynoGPRC5D cells (sheet: 293T-cynoGPRC5D), PE anti-human IgG Fc secondary, MFI
T2 construct: also called CynoGPRC5D; on HEK293T-CynoGPRC5D cells
T2 chain: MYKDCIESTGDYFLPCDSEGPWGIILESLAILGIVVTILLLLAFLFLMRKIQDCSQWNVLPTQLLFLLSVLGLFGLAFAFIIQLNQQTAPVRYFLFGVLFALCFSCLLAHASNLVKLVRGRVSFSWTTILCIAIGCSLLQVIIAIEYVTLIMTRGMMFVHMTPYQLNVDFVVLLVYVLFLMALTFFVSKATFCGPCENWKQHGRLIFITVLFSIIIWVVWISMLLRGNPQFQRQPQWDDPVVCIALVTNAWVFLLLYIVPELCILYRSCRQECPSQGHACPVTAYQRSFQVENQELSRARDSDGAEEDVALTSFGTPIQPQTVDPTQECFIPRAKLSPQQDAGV
Procedure: as §1, §2

T1 sequence (Q9NZD1 whole entry): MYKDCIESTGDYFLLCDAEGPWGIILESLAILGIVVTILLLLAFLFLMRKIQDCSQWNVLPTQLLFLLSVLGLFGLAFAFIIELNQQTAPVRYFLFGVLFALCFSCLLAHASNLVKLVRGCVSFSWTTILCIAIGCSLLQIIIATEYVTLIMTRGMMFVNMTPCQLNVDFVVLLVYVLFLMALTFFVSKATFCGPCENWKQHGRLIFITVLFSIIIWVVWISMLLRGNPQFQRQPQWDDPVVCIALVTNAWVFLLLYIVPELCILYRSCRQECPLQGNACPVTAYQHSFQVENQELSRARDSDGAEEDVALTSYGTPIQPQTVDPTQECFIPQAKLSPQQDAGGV

Binder	EC50 (read off the curve) (human GPRC5D protein)	binding result [1]	EC50 (read off the curve) [1]
B1	~3 nM	binds	–
B2	~3 nM	–	~3 nM
B3	~3 nM	–	~4 nM

From patent publication US20250092135A1 (NANJING LEADS BIOLABS, published 2025)
